Data as given in patent publication US20250188166A1 (BRIGHT PEAK THERAPEUTICS, published 2025).
Like-named read-outs stand apart in the source and are kept apart here.

What was measured:
[1] = target: T1, recombinant biotinylated human FcRn (human, UniProt P55899 24-297; P61769 21-119, limits assumed, biotinylated); test: AlphaLISA competition at pH 6; competitor human IgG acceptor beads
T1 construct: Kit reagent; also called human neonatal Fc receptor
Description: (§1) The interaction of the unmodified and of conjugated anti-PD1 antibodies with the human neonatal Fc receptor (FcRn) at pH 6 was measured using the AlphaLISA® Human FcRn Binding Kit (AL3095C) from Perkin Elmer (Schwerzenbach, Switzerland).
(§2) After 90 min at 23° C. in the dark, AlphaLISA® signal was measured on an EnSpire plate reader (Excitation at 680 nm, Emission at 615 nm) from Perkin Elmer (Schwerzenbach, Switzerland).

[2] = target: T2, recombinant Human Fc gamma RI/CD64 Protein (human, UniProt P12314 16-288); test: ELISA: antibody coated (2.5 µg/ml), His-tagged recombinant human FcγRI/CD64 titrated (x-axis), anti-His-HRP/TMB, 450 nm
T2 construct: also called FcγRI/(CD64); human Fc gamma receptor I
Description: (§3) The interaction of the unmodified and of conjugated antibodies with human Fc gamma receptors I (FcγRI/CD64), with human Fc gamma receptors IIa (FcγRIIa/CD32a), with inhibitory human Fc gamma receptors IIb (FcγRIIb/CD32b), and with human Fc gamma receptors III FcγRIIIa/CD16 were measured by ELISA.
Briefly, Corning high-binding half-area plates (Fisher Scientific, Reinach, Switzerland) were coated overnight at 4° C. with 25 ul of unmodified and of conjugated anti-PD1 antibodies at 2.5 μg/ml in PBS. Plates were then washed four times with 100 ul of PBS-0.02% Tween20. Plates surfaces were blocked with 25 ul of PBS-0.02% Tween20-1% BSA at 37° C. during 1h. Plates were then washed four times with 100 ul of PBS-0.02% Tween20. Then twenty-five microliters of either recombinant Human Fc gamma RI/CD64 Protein (R&D systems, 1257-FC-050, CF), recombinant Human Fc gamma RIIA/CD32a (H167) Protein (R&D systems, 9595-CD-050, CF), recombinant Human Fc gamma RIIB/CD32b Avi-tag Protein (R&D systems, AVI1875-050, CF), or recombinant Human Fc gamma RIIIA/CD16a Protein (R&D systems, 4325-FC-050; CF) were added in five-fold serial dilutions ranging from 1000 nM to 0.001 nM into PBS-0.02% Tween20-0.1% BSA and incubated at 37° C. during 2h. […] ELISA signal was then measured at 450 nm on an EnSpire plate reader from Perkin Elmer (Schwerzenbach, Switzerland).

[3] = target: T3, Biotinylated Recombinant Human PD-1/CD279-Fc Chimera (human, UniProt Q15116 25-167, biotinylated); test: ELISA: antibody coated on the plate (5 µg/ml), biotinylated human PD-1-Fc titrated (x-axis, Concentration (nM)), streptavidin-HRP/TMB, 450 nm
T3 construct: Bought (Biolegend #789406); also called recombinant biotinylated human PD-1

[4] = target: T1, recombinant biotinylated human FcRn; test: AlphaLISA competition at pH 6: test antibody titrated against human IgG acceptor beads for biotinylated human FcRn on streptavidin donor beads; loss of signal
Description: as §1, §2

[5] = target: T1, recombinant biotinylated human FcRn; test: AlphaLISA competition at pH 6; competitor human IgG acceptor beads; remark: listed apart in the source
Description: as §1, §2

[6] = target: T1, recombinant biotinylated human FcRn; test: AlphaLISA competition at pH 6: test antibody titrated against human IgG acceptor beads for biotinylated human FcRn on streptavidin donor beads; normalized signal
[7] = target: T4, recombinant Human Fc gamma RIIIA/CD16a Protein (human, UniProt P08637 17-208, limits assumed); test: ELISA; antibody coated, His-tagged receptor titrated
T4 construct: also called FcγRIIIa (CD16)
Description: as §3
(§4) Briefly, Corning high-binding half-area plates (Fisher Scientific, Reinach, Switzerland) were coated overnight at 4° C. with 25 ul of unmodified and of conjugated anti-PD1 antibodies at 2.5 μg/ml in PBS. Plates were then washed four times with 100 ul of PBS-0.02% Tween20. Plates surfaces were blocked with 25 ul of PBS-0.02% Tween20-1% BSA at 37° C. during 1h. Plates were then washed four times with 100 ul of PBS-0.02% Tween20. Then twenty-five microliters of either recombinant Human Fc gamma RI/CD64 Protein (R&D systems, 1257-FC-050, CF), recombinant Human Fc gamma RIIA/CD32a (H167) Protein (R&D systems, 9595-CD-050, CF), recombinant Human Fc gamma RIIB/CD32b Avi-tag Protein (R&D systems, AVI1875-050, CF), or recombinant Human Fc gamma RIIIA/CD16a Protein (R&D systems, 4325-FC-050; CF) were added in five-fold serial dilutions ranging from 1000 nM to 0.001 nM into PBS-0.02% Tween20-0.1% BSA and incubated at 37° C. during 2h. Plates were then washed four times with 100 ul of PBS-0.02% Tween20. Twenty-five microliters of a 1/500 HRP-anti-His antibody in PBS-0.02% Tween20-0.1% BSA (R&D systems, anti-HIS-HRP Ab, #MAB050H) were added to each well and plates were incubated at Room Temperature during 1h. Plates were then washed four times with 100 ul of PBS-0.02% Tween20. Fifty microliters of TMB substrate reagent (#CL07, Merck, Buchs, Switzerland) were added to each well and incubated at 37° C. during 5 min. After 5 min at 37° C., Horseradish peroxidase reaction was stopped by adding 50 ul/well of 0.5M H2SO₄ stop solution. ELISA signal was then measured at 450 nm on an EnSpire plate reader from Perkin Elmer (Schwerzenbach, Switzerland).

[8] = target: T2, recombinant Human Fc gamma RI/CD64 …; test: as above
Description: as §3, §4

[9] = target: T5, recombinant Human Fc gamma RIIA/CD32a (H167) Protein (human, UniProt P12318 36-218, limits assumed); test: as above
T5 construct: also called FcγRIIa (CD32a)
T5 sequence (looked up): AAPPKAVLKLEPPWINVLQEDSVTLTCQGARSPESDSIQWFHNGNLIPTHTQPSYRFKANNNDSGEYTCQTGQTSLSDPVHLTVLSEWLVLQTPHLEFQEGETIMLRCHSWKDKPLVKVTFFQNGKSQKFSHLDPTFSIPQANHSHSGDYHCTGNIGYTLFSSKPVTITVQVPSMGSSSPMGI
Description: as §3, §4

[10] = target: T6, recombinant Human Fc gamma RIIB/CD32b Avi-tag Protein (human, UniProt P31994 46-217); test: as above
T6 construct: also called FcγRIIb (CD32b)
T6 sequence (looked up): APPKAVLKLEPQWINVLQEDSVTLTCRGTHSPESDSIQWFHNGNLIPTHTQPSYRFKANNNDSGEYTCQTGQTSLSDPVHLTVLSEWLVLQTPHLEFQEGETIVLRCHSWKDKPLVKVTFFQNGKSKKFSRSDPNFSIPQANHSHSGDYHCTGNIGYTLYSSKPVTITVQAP
Description: as §3, §4

[11] = target: human PD-1 on Jurkat T cells (human, UniProt Q15116 25-288); test: cell-based or functional assay

B1: LZM-009 (antibody, human IgG4 S228P, kappa)
heavy: not shown
light: EIVLTQSPATLSLSPGERATISCRASKGVSTSGYSYLHWYQQKPGQAPRLLIYLASYLESGVPARFSGSGSGTDFTLTISSLEPEDFATYYCQHSRELPLTFGTGTKVEIKRTVAAPSVFIFPPSDEQLKSGTASVVCLLNNFYPREAKVQWKVDNALQSGNSQESVTEQDSKDSTYSLSSTLTLSKADYEKHKVYACEVTHQGLSSPVTKSFNRGEC
notes: IgG4 anti-PD-1 antibody; also called CMP2000
How did the Kd [1] turn out when B1 was run?
The Kd was 6 nM.

What about the “EC50 (read off the curve)” value [2] of the same binder?
The value was about 0.2 nM.

What about the “EC50 (read off the curve)” value [3] of the same binder?
Its value is about 0.03 nM.

And the “IC50 (read off the curve)” value [4]?
Its value is about 5 nM.

And the Kd [5]?
The Kd was 6 nM.

What about the “IC50 (read off the curve)” value [6] of the same binder?
Its value is about 5 nM.

And the Kd [7]?
Its Kd is 1710 nM.

And the Kd [8]?
The Kd was 0.315 nM.

And the Kd [9]?
Its Kd is 1350 nM.

What about the Kd [10] of the same binder?
Its Kd is 2630 nM.

And the “EC50 (read off the curve)” value [11]?
The value was about 2 nM.
